Substitutions are numbered along the chain they refer to. In names and notes the source's numbering stands.
B1: aglycosylated Fc1001 trastuzumab (antibody, part only; not given: Fab (trastuzumab), IgG1, not shown: another chain or arm of the molecule)
Fc: DKTHTCPPCPAPELLGGPSVFLFPPKPKDTLMISRTPEVTCVVVDVSPEDPEVKFNWYVDGVEVHNAKTKPREKQYNGAYRVVSVLTVLHQDWLNGKEYKCKVSNKALPAPIEKTISKAKGQPREPQVYTLPPSRDELTKSQVSLTCLVKGFYPSDIAVEWVSNGQPENNYKTTPPVLDSDGSFFLYSKLTVDKSRWQQGNVFSCSVLHEALHNHYTQKSLSLSPGK
modifications: aglycosylated (T299A)
B2: aglycosylated Fc1003 trastuzumab (antibody, part only; not given: Fab (trastuzumab), IgG1, not shown: another chain or arm of the molecule)
Fc: B1 Fc with P48H, K74E, S141N, K172E, V177M
modifications: aglycosylated (T299A)

Key:
[1] = target: soluble human FcγRIIa^R131-GST (human) (UniProt P12318); experiment: flow cytometry of E. coli spheroplasts displaying the full length IgG, 20 nM FcγRIIa-GST-Alexa488 in the presence of 100 nM unlabelled FcγRIIb-GST
[2] = target: soluble human FcγRIIb-GST (human) (UniProt P31994); experiment: SPR (BIAcore 3000), antibody on CM5 chip, soluble dimeric receptor-GST injected, bivalent analyte model
[3] = target: soluble human FcγRIIa^R131-GST (human) (UniProt P12318); experiment: as above
[4] = target: soluble human FcγRIIa^R131-GST (human) (UniProt P12318); experiment: SPR; ratio of the Kd for FcγRIIb-GST over that for FcγRIIa-GST

soluble human FcγRIIa^R131-GST (human), sequence (P12318 34-217 H167R): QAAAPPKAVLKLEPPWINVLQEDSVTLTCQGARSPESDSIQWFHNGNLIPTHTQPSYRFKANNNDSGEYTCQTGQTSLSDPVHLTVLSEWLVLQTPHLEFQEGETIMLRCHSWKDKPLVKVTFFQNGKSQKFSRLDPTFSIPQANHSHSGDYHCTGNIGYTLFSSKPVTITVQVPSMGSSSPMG
soluble human FcγRIIb-GST (human), sequence (P31994 43-217): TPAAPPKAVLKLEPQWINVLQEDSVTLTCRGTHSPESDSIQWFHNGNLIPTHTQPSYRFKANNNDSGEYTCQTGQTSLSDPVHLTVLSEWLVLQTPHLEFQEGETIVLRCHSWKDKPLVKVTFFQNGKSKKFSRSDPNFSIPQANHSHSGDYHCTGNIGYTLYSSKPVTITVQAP

Row | FACS mean value [1] | M (mean fluorescence intensity) [1] | Kd [2] [nM] | koff [2] [s⁻¹] | kon [2] [M⁻¹ s⁻¹] | Kd [3] [nM] | koff [3] [s⁻¹] | kon [3] [M⁻¹ s⁻¹] | KD2b/KD2a [4] | Binder
1 | 409 | 413 | 975 | 0.0194 | 19900 | 102 | 0.00352 | 34600 | 9.6 | B1
2 | 277 | – | 1380 | 0.00866 | 6260 | 389 | 0.0079 | 20300 | 3.56 | B2

Source: US20120208238A1
